Assay [1] has as its target engineered strepII-tagged H77c-derived soluble native-like E1E2 (hepatitis C virus, strain H77c). The experiment in a line: mass photometry.
Assay [2] deals with engineered strepII-tagged H77c-derived soluble native-like E1E2 (Hepatitis C virus genotype 1a, isolate H77 (H77c)). The experiment in a line: mass photometry.

“And” between values parts separate entries of the source, which are not always exact repeats. Equal values may be shown once.

On to “AR4A/AR3C IgG3C- hinge bispecific antibody (CrossMab)”, for which the stoichiometry N (usually the number of molecules, sites or subunits per partner or assembly) in assay [1] is 1 E1E2:Ab.

For the substance AR3C monoclonal antibody, in assay [2], the relative abundance of the 1:1 E1E2:Ab complex came out at 60%; the relative abundance of the 2:1 E1E2:Ab complex was determined as 40%; the stoichiometry N was 1 E1E2:Ab and 2 E1E2:Ab.

Take “AR4A/AR3C IgG1 hinge bispecific antibody”: in assay [1], the relative abundance of the 2:1 E1E2:Ab complex came to 67%, the stoichiometry N is 2 E1E2:Ab, the stoichiometry N (E1E2:Ab (2:2 complex)) came out at 1 and the stoichiometry N (E1E2:Ab (3:2 complex)) came to 1.5.

Take “AR4A/AR3C CamX6 hinge bispecific antibody (CrossMab)”: the stoichiometry N in assay [1] is 1 E1E2:Ab.

Turning to AR4A monoclonal antibody, in assay [2], the relative abundance of the 1:1 E1E2:Ab complex came out at 60%; the relative abundance of the 2:1 E1E2:Ab complex was 40%; the stoichiometry N was 1 E1E2:Ab and 2 E1E2:Ab.

Source of the values: paper PMC12012487.
